Results: the supplement of paper PMC7877785
± gives the uncertainty stated by the source.

Assay: self-splicing fitness, log relative to wild type (ln ratio); higher = more splicing; Tetrahymena group I intron in knt gene, E. coli kanamycin selection, DiMSum; sequences stand for … in CUCUCU…GGAGGGAAAAGUUAUCAGGCAUGCACCUGGUAGCUAGUCUUUAAACCAAUAGAUUGCAUCGGUUUAAAAGGCAAGACCGUCAAAUUGCGGGAAAGGGGUCAACAGCCGUUCAGUACCAAGUCUCAGGGGAAACUUUGAGAUGGCCUUGCAAAGGGUAUGGUAAUAAGCUGACGGACAUGGUCCUAACCACGCAGCCAAGUCCUAAGUCAACAGAUCUUCUGUUGAUAUGGAUGCAGUUCACAGACUAAAUGUCGGUCGGGGAAGAUGUAUUCUUCUCAUAAGAUAUAGUCGGACCUCUCCUUAAUGGGAGCUAGCGGAUGAAGUGAUGCAACACUGGAGCCGCUGGGAACUAAUUUGUAUGCGAAAGUAUAUUGAUUAGUUUUGGAGUACUCGUGGUCG
Procedure, shortened: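 Pooled colonies went to amplicon sequencing on an Illumina HiSeq 2500 after six replicate transformations. The plates were LB agar with 100 μg/mL carbenicillin, 50 μM IPTG and 0.2% rhamnose, with or without 25 μg/mL kanamycin, incubated overnight at 37°C or 30°C. The E. coli BL21(DE3) library had all eight P1ex-region intron nucleotides randomised, the intron placed in the knt kanamycin-resistance gene on pET-22b(+). DiMSum fitness is the error-weighted combination of replicate fold changes, kanamycin against none, normalised to wild type.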

Sequence	self-splicing fitness (ln) (30 °C)	self-splicing fitness (ln) (37 °C)
CCACAGCAAUAUUACGAAAU	-4.25 ± 0.24	-2.02 ± 0.17
CCACAGCAAUAUUACGACAC	-3.68 ± 0.29	-1.5 ± 0.18
CCACAGCAAUAUUACGACGC	-3.76 ± 0.33	-2.08 ± 0.35
CCACAGCAAUAUUACGAGCG	-0.707 ± 0.048	0.184 ± 0.065
CCACAGCAAUAUUACGCGAU	-3.36 ± 0.17	-3.66 ± 0.21
CCACAGCAAUAUUACGCGUA	-2.81 ± 0.18	-2.41 ± 0.2
CCACAGCAAUAUUACGCGUU	-3.65 ± 0.092	-2.91 ± 0.13
CCACAGCAAUAUUACGGCGG	-3.15 ± 0.14	-1.08 ± 0.12
CCACAGCAAUAUUACGGGUC	-3.86 ± 0.18	-2.89 ± 0.17
CCACAGCAAUAUUACGGGUG	-2.04 ± 0.05	-0.716 ± 0.059
CCACAGCAAUAUUACGUAGC	-4.48 ± 0.29	-2.7 ± 0.26
CCACAGCAAUAUUACGUAUA	-4.05 ± 0.24	-2.84 ± 0.23
CCACAGCAAUAUUACGUCUU	-3.88 ± 0.14	-2.85 ± 0.12
CCACAGCAAUAUUACGUGCA	-4.24 ± 0.24	-2.5 ± 0.12
CCACAGCAAUAUUACGUGGG	-3.56 ± 0.14	-3.13 ± 0.18
CCACAGCAAUAUUACGUUAC	-3.16 ± 0.21	-2.17 ± 0.17
CCAGAGCAAUAUUACGAACA	-2.39 ± 0.47	-1.48 ± 0.49
CCAGAGCAAUAUUACGACAU	-3.776 ± 0.029	-3.03 ± 0.043
CCAGAGCAAUAUUACGACUC	-1.93 ± 0.32	-1.12 ± 0.43
CCAGAGCAAUAUUACGAGGG	-4.31 ± 0.39	-2.39 ± 0.41
CCAGAGCAAUAUUACGAUGU	-3.69 ± 0.23	-1.83 ± 0.17
CCAGAGCAAUAUUACGAUUU	-3.77 ± 0.35	-3.59 ± 0.39
CCAGAGCAAUAUUACGCACU	-2.9 ± 0.25	
CCAGAGCAAUAUUACGCAUC	-2.56 ± 0.28	-1.99 ± 0.31
CCAGAGCAAUAUUACGCCCU	-2.65 ± 0.48	-2.07 ± 0.36

Sequence	self-splicing fitness (ln) (30 °C)	self-splicing fitness (ln) (37 °C)
CCAGAGCAAUAUUACGCCUG		-2.66 ± 0.36
CCAGAGCAAUAUUACGCGCA	-3.16 ± 0.25	
CCAGAGCAAUAUUACGCGGA	-3.2 ± 0.34	-2.49 ± 0.24
CCAGAGCAAUAUUACGCGGU	-3.94 ± 0.23	-3.14 ± 0.33
CCAGAGCAAUAUUACGCUCA	-3.24 ± 0.38	-1.42 ± 0.37
CCAGAGCAAUAUUACGCUCG	-2.32 ± 0.28	-1.95 ± 0.38
CCAGAGCAAUAUUACGCUUG	-3.27 ± 0.26	-2.93 ± 0.35
CCAGAGCAAUAUUACGGACU	-3.62 ± 0.48	-0.487 ± 0.4
CCAGAGCAAUAUUACGGCAG	-1.8 ± 0.088	-1 ± 0.13
CCAGAGCAAUAUUACGGCCC	-2.44 ± 0.46	-1.44 ± 0.42
CCAGAGCAAUAUUACGGGAC	-2.81 ± 0.33	
CCAGAGCAAUAUUACGGGUG	-1.52 ± 0.072	-0.654 ± 0.096
CCAGAGCAAUAUUACGGUCG	-1.35 ± 0.1	-0.448 ± 0.12
CCAGAGCAAUAUUACGGUGU	-3.53 ± 0.16	-2.7 ± 0.2
CCAGAGCAAUAUUACGGUUC	-4.36 ± 0.21	-2.38 ± 0.18
CCAGAGCAAUAUUACGUGAC	-3.36 ± 0.19	-3.93 ± 0.46
CCAGAGCAAUAUUACGUGAG	-0.95 ± 0.061	-0.428 ± 0.074
CCAGAGCAAUAUUACGUGCA	-1.88 ± 0.22	-2.54 ± 0.4
CCAGAGCAAUAUUACGUUCG	-2.91 ± 0.17	-1.64 ± 0.17
CCAUAGCAAUAUUACGAAAG	-2.11 ± 0.12	-0.18 ± 0.12
CCAUAGCAAUAUUACGAACC	-1.85 ± 0.5	
CCAUAGCAAUAUUACGAAUU	-3.3 ± 0.23	-2.51 ± 0.39
CCAUAGCAAUAUUACGAGAA	-0.566 ± 0.36	
CCAUAGCAAUAUUACGAGCA	-3.11 ± 0.2	-2.11 ± 0.23
